Values of other authors, collected in publication PMC3727077.
Where two headings read alike, the source gives them in different places.

What was measured:
[1] = target: NRP1 (Homo sapiens) (UniProt O14786)
[2] = target: α2M (Homo sapiens) (UniProt P01023)
[3] = target: VEGFR1 (Homo sapiens) (UniProt P17948)
[4] = target: VEGFR2 (Homo sapiens) (UniProt P35968)
[5] = target: α2MFAST (Homo sapiens) (UniProt P01023)
[6] = target: NRP1 (Homo sapiens) (UniProt O14786); remark: listed apart in the source

Chain of UniProt P35968 (P35968 20-1356): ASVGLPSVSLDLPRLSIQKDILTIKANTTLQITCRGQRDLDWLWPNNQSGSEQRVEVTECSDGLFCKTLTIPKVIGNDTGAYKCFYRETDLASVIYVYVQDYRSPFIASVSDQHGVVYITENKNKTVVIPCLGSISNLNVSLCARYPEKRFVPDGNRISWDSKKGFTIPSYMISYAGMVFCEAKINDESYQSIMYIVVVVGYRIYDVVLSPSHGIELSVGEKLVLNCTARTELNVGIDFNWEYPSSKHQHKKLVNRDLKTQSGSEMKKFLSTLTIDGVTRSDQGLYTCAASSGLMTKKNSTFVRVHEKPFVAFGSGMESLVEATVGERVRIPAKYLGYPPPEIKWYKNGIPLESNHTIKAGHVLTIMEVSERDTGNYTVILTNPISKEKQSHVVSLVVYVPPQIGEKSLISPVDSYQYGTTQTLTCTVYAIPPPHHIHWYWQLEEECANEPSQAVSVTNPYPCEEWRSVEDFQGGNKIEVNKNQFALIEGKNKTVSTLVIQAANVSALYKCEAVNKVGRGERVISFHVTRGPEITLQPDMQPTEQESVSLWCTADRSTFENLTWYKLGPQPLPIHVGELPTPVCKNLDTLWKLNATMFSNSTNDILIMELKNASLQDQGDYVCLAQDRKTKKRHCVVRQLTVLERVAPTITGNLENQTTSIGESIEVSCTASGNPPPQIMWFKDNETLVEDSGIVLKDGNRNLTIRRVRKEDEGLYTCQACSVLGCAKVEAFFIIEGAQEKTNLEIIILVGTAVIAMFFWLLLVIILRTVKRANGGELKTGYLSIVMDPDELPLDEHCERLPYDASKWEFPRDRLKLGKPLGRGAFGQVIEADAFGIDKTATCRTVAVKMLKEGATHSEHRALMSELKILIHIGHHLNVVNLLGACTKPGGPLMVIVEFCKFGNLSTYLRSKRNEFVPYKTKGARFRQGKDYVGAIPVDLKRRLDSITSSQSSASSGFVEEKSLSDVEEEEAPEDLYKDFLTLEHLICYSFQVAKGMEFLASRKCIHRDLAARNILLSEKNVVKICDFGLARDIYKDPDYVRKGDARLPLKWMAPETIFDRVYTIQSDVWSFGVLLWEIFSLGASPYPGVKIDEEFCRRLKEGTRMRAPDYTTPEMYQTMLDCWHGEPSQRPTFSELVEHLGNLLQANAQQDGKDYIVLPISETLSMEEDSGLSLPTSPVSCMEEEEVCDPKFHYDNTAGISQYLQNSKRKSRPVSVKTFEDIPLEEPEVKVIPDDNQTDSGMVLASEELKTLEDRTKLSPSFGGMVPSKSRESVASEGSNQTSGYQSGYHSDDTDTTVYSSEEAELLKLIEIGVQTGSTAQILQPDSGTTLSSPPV

| Substance | Kd [1] | Kd [2] | Kd [3] | Kd [4] | Kd [5] | Kd [6] |
| --- | --- | --- | --- | --- | --- | --- |
| sVEGFR1 soluble (from UniProt P17948) | 1.8 nM |  |  |  |  |  |
| VEGF (from UniProt P15692) |  | 4000 nM | 0.033 nM | 0.1 nM | 420 nM | 0.312 nM |
